Reference: patent US20080233097A1, “Phosphorylation Site Of Mitogen-Activated Protein Kinases, Modified Proteins And Applications” (UNIVERSIDAD AUTONOMA DE MADRID, priority 2005, published 2008)

Legend:
Type in all cases: biochemical
MKK6CAM = assay: p38 phosphorylation by MKK6CAM in vitro; conditions: 150 nM fusion protein, 40 ng MKK6CAM
Experimental: (§1) The reactions were carried out at 30° C. for 30 minutes and the proteins were separated in 8% SDS-PAGE gels. The amount of p38 in each point was visualized by Coomassie Blue staining. Then the radioactivity in each p38 isoform was determined. […] FIG. 11B: In these same assays, the ability of MKK6CAM-activated GST-p38WT, GST-p38T123A and GST-p38T123D to phosphorylate 2 μg of GST-ATF2 is evaluated. The representative autoradiography (^32P) of the total GST-ATF2 control (Coomassie Blue) is attached.
As in the previous cases, the reactions were left to take place at 30° C. for 30 minutes and the proteins were resolved in 8% SDS-PAGE gels. With the purpose of assuring the inclusion of identical amounts of protein, they were visualized in the gel by Coomassie Blue staining. Subsequently, the radioactivity incorporated in each p38 isoform was determined.

GST-MEF2A = assay: phosphorylation of GST-MEF2A by p38; conditions: with MKK6CAM, 2 μg GST-MEF2A
Experimental: FIG. 12A: In vitro phosphorylations are carried out with the fusion proteins indicated in the Figure, in the presence (+) or absence (−) of recombinant MKK6CAM(40 ng) and 2 μg of GST-MEF2A. The assay was left to take place for 30 minutes. The proteins were separated in 8% SDS-PAGE, stained with CBB and the incorporated radioactivity (^32P) was detected. Panels of a representative experiment of the three assays carried out independently are provided. FIG. 12B: The baseline activity of the three p38 fusion proteins in the absence of the MKK6CAM activator was evaluated in the previously described conditions. A representative autoradiography after a long exposure is shown.
(§2) The ATF2 and MEF2A forms bound to GST were used to test the catalytic activity of GST-p38. In most cases, 2 μg of GST-ATF2 or GST-MEF2A, of own production, were used. The phosphorylation conditions are the same as set forth in the foregoing cases. Nevertheless, in other occasions, relevantly pointed out in the Figures, 0.2 μg of substrate were used and the phosphorylation reaction was allowed to take pace for 15 minutes only.

GST-ATF2 = assay: phosphorylation of GST-ATF2 by MKK6CAM-activated p38; conditions: with MKK6CAM, 2 μg GST-ATF2
Experimental: as §1, §2

GRK2 = biological target: T1, GRK2 (Bos taurus, UniProt P21146); assay: phosphorylation of p38 mutants and truncated proteins by GRK2 in vitro; conditions: GST fusion proteins, 30 minutes at 30° C.
T1 construct: made in house; host or cells: Sf9 cells (baculovirus)
T1 sequence (P21146 1-689): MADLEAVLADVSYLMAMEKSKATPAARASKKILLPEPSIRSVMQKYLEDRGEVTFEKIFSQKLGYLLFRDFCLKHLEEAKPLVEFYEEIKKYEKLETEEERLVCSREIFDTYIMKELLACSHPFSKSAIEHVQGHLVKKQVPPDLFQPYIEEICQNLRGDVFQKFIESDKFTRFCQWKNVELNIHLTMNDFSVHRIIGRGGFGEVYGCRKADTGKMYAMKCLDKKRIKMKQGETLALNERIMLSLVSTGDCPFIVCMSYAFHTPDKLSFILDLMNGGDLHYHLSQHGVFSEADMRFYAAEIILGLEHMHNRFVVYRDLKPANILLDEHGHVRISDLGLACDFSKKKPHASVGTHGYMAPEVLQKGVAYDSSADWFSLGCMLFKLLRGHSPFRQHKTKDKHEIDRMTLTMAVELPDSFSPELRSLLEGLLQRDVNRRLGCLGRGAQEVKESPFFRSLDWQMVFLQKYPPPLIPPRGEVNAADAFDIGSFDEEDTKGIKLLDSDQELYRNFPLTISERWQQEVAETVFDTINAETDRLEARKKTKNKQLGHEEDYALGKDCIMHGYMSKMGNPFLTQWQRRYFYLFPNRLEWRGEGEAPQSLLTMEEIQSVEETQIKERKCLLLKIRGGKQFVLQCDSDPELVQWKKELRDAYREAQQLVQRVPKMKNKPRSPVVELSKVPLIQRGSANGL
Experimental: FIG. 6A: Proteins fused to GST (black rectangle in the protein schemes) were purified from bacteria transformed with the plasmids pGEX2T-p38α, pGEX4T-Mxi2 and pGEX4T-Mxi2Δ17: p38α, Mxi2 and Mxi2Δ17. The […] isoforms used as C-terminal truncated mutants for trying to limit the GRK2 phosphorylation site. […] Heparin (150 nM) was included as a specific GRK2 inhibitor. The reactions were stopped by adding SDS breaking buffer. The samples were resolved in 8% SDS-PAGE. For the purpose of assuring the inclusion of identical amounts of protein, they were first visualized in the gel by Coomassie Brilliant Blue (CBB) staining. Then the gel was dried and the radioactivity incorporated to the proteins (^32P) was detected. FIG. 6B: The truncated GST-280-360p38 protein, corresponding to the last 80 p38α amino acids, was generated by means of the Invitrogen Gateway system. Phosphorylation assays were carried out with Mxi2Δ17 as a p38 N-terminal, 280-360 p38 as C-terminal and with whole p38α in the same conditions as described in section A. The phosphorylation was detected by autoradiography (^32P) and controls of the amount of protein used in the assays were carried out concomitantly by Western blot with the anti-GST antibody. The presence of the GST-280-360p38 protein, which is not phosphorylated, is clearly observed. STD, mobility of standard molecular weight proteins.
FIG. 9A: p38T123A and p38T123D proteins, fused to GST, were made by directed mutagenesis in the prokaryotic expression plasmids pGEX2T. The ability of the recombinant GST-p38T123A and GST-p38T123D proteins to be GRK2 substrates in comparison to the wild GST-p38WT protein and at the final concentrations indicated in the Figure was assayed. The upper panels represent the obtained phosphorylation (32 P) and the lower panels show, by anti-p38N WB, the amount of recombinant protein used in the assays. […]
Heparin (150 nM) was included as a specific GRK2 inhibitor. […] Subsequently, the gel was dried and the radioactivity incorporated to the proteins (^32P) was detected. […]

B1: p38T123D: p38α mutant; aspartic acid mimics the constitutively phosphorylated form of threonine 123 (protein, UniProt P47811 2-360, looked up, variant T123D)
Mitogen-activated protein …: SQERPTFYRQELNKTIWEVPERYQNLSPVGSGAYGSVCAAFDTKTGHRVAVKKLSRPFQSIIHAKRTYRELRLLKHMKHENVIGLLDVFTPARSLEEFNDVYLVTHLMGADLNNIVKCQKLDDDHVQFLIYQILRGLKYIHSADIIHRDLKPSNLAVNEDCELKILDFGLARHTDDEMTGYVATRWYRAPEIMLNWMHYNQTVDIWSVGCIMAELLTGRTLFPGTDHIDQLKLILRLVGTPGAELLKKISSESARNYIQSLAQMPKMNFANVFIGANPLAVDLLEKMLVLDSDKRITAAQALAHAYFAQYHDPDDEPVADPYDQSFESRDLLIDEWKSLTYDEVISFVPPPLDQEEMES
modifications: GST or Flag tag in some forms
- phosphorylation by MKK6CAM (32P) (MKK6CAM): much worse MKK6CAM substrate than the other two p38
- catalytic activity on MEF2A (GST-MEF2A): completely abolished
- catalytic activity on GST-ATF2 (GST-ATF2): lacks the most minimum catalytic activity
- ability to be a GRK2 substrate (32P incorporation) (GRK2): none of the two mutant is a GRK2 substrate
